Laboratory results reported in patent US20230405078A1, “DETECTION AND TREATMENT OF INTESTINAL FIBROSIS” (THE REGENTS OF THE UNIVERSITY OF CALIFORNIA, priority 2020, published 2023).
Entries after “also recorded” stand apart in the source; their conditions may differ.

Experiments:
[1] = cited from earlier work
[2] = tested on: Salmonella-infected mice; assay: Salmonella-mediated cecal fibrosis in mice; type: in vivo; conditions: Salmonella model
Procedure: Eight-week-old male and female 129Sv/J mice (#000691, Jackson Laboratories) were administered 20 mg streptomycin via oral gavage. Twenty-four hours later, the mice were orally infected with Salmonella typhimurium SL1344 strain 1×10^8 colony-forming units by oral gavage to induce cecal fibrosis.
Origene or miR205-5p-OFF lentivrus (mm35328) or miR205-5p-OE lentivirus (mm15214) from Applied Biological Materials on day 14. Some infected mice received oral antibiotics mixture in drinking water ad libitum from day 14 to day 21 to suppress intestinal microbiota. […]
H&E and Masson Trichrome (MT) staining were performed as described previously. Microphotographs were recorded at multiple locations and scored by two investigators blindly. Intestinal injuries were scored (0-12). The severity of intestinal fibrosis was assessed by MT staining and scored (0-3). […]
Total RNA was isolated by an RNeasy kit (#74104, Qiagen) and reverse transcribed into cDNA by a high-capacity cDNA reverse transcription kit (#4368813, ThermoFisher). […] Relative mRNA/miRNA quantification was performed by comparing test groups and control groups after normalization with endogenous control genes. The fold changes are expressed as 2^ΔΔCt. […]
Overall disease activity (ODA) was calculated by % change of histology and fibrosis scores and colonic mRNA expression of fibrosis- and inflammation-related genes. […]

[3] = tested on: 3T3-L1 adipocytes; assay: Lipid accumulation and gene expression in 3T3-L1 adipocytes; type: cell-based, mouse; conditions: 24-h; elafin 10 ng/ml, miRNA mimics 75 ng/ml
Description: FIG. 34. Immune cell-derived miR181b-5p and miR219-5p induced leptin mRNA expression in 3T3-L1 adipocytes. (A) Mouse serum exosomal miRNA expression was profiled by a PCR array. miR219-5p, miR210-3p, and miR181-5p were undetectable in the serum exosomes of HFD-treated mice without elafin overexpression. These three miRNAs were detected in the serum exosomes of elafin-overexpressing HFD-treated mice only. Each group consists of 6 mice. […] (C) The positive correlation between serum elafin levels and miRNAs (miR181b-5p and miR210-3p, but not miR219-5p) in the men with T2DM. […]
Cell culture experiments. […] Adipocyte lipid accumulation was determined using Oil Red O staining, as described previously.
Quantitative real-time reverse transcription-polymerase chain reaction (RT-PCR) and miRNA PCR array. […] Quantitative PCR reactions were run with Fast Universal PCR master mix (#4352042, ThermoFisher) in a Bio-Rad CFX384 using cataloged primers (ThermoFisher) for human elafin (Hs00160066_m1), human leptin (Hs00174877_m1), mouse Cd36 (Mm00432403_m1), mouse adiponectin (Mm00456425_m1), mouse leptin (Mm00434759_m1), and mouse Tnf (Mm00443258_m1). Relative mRNA quantification was performed by comparing test groups and control group, after normalization with endogenous control gene human 18S (Hs99999901_s1) or mouse Gapdh (Mm99999915_g1).

## Elafin: small (6 kDa) human elastase-specific protease inhibitor and antimicrobial peptide; active form SEQ ID NO: 2 (AQEPVKGPVSTKPGSCPIILIRCAMLNPPNRCLKDTDCPGIKKCCEGSCGMACFVPQ; listed as Homo sapiens)
[1]; 200 mg/person intravenous
  increase of plasma concentration: > 3000 fold
[1]; 200 mg/person
  adverse effects / tolerability: does not cause any adverse effects; also recorded: well tolerated
[2]
  overall disease activity: 29%
[3]
  lipid accumulation; Cd36 and adiponectin mRNA expression: affected neither
